According to patent US20200325225A1 (Hoffmann-La Roche, published 2020):

Biological target: T1, murine FAP (murine, UniProt P97321 27-761, limits assumed)
T1 construct: also called mouse FAP; murine FAP (Analyte 2)
Assay: SPR (Biacore T200, 25 C, HBS-EP), simultaneous binding; muFAP-4-1BB held on immobilized murine 4-1BB Fc(kih); murine FAP 500 nM as second analyte, 30 uL/min, 90 s, dissociation 120 s
Experimental: All SPR experiments were performed on a Biacore T200 at 25° C. with HBS-EP as running buffer (0.01 M HEPES pH 7.4, 0.15 M NaCl, 3 mM EDTA, 0.005% Surfactant P20, Biacore, Freiburg/Germany). […] Immobilization levels up to 600 resonance units (RU) were used.
Murine FAP was injected as second analyte with a flow of 30 μL/minute through the flow cells over 90 seconds at a concentration of 500 nM. The dissociation was monitored for 120 sec. Bulk refractive index differences were corrected for by subtracting the response obtained in a reference flow cell, where no protein was immobilized.

T1 sequence (P97321 27-761 limits assumed): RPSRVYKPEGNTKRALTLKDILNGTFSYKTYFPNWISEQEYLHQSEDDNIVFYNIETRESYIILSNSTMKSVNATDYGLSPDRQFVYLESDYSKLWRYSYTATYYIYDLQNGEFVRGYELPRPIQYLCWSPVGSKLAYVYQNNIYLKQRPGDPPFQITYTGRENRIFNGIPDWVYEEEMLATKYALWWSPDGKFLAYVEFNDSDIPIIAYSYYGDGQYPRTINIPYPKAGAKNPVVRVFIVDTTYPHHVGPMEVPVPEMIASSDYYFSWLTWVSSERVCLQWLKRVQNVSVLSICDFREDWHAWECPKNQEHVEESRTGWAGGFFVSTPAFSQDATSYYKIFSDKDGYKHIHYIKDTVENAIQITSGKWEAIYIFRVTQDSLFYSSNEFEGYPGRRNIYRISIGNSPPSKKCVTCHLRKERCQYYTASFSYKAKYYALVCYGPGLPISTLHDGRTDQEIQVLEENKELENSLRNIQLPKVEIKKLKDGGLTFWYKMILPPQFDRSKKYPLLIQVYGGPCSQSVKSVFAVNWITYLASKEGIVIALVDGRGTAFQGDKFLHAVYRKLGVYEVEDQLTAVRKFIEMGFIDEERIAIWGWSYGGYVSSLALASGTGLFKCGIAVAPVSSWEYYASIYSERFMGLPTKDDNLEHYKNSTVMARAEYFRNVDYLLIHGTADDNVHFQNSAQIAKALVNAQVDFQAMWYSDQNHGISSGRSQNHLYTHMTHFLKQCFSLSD

B1: 4-1BB (MU137-1)/FAP(28H1) DAPG IgG1 2+1 (Fc-DD-VL) (bispecific antibody)
heavy 1: DVQLVESGGGLVQPGRSLKLSCAASGFIFSYFDMAWVRQAPTKGLEWVASISPSGDIPYYRDSVKGRFTVSRENAKSSLYLQMDSLRSEDTATYYCARRSYGGYSELDYWGQGVMVTVSSAKTTPPSVYPLAPGSAAQTNSMVTLGCLVKGYFPEPVTVTWNSGSLSSGVHTFPAVLQSDLYTLSSSVTVPSSTWPSQTVTCNVAHPASSTKVDKKIVPRDCGCKPCICTVPEVSSVFIFPPKPKDVLTITLTPKVTCVVVAISKDDPEVQFSWFVDDVEVHTAQTKPREEQINSTFRSVSELPIMHQDWLNGKEFKCRVNSAAFGAPIEKTISKTKGRPKAPQVYTIPPPKEQMAKDKVSLTCMITNFFPEDITVEWQWNGQPAENYDNTQPIMDTDGSYFVYSDLNVQKSNWEAGNTFTCSVLHEGLHNHHTEKSLSHSPGGGGGSGGGGSGGGGSGGGGSEIVLTQSPGTLSLSPGERATLSCRASQSVSRSYLAWYQQKPGQAPRLLIIGASTRATGIPDRFSGSGSGTDFTLTISRLEPEDFAVYYCQQGQVIPPTFGQGTKVEIK
heavy 2: DVQLVESGGGLVQPGRSLKLSCAASGFIFSYFDMAWVRQAPTKGLEWVASISPSGDIPYYRDSVKGRFTVSRENAKSSLYLQMDSLRSEDTATYYCARRSYGGYSELDYWGQGVMVTVSSAKTTPPSVYPLAPGSAAQTNSMVTLGCLVKGYFPEPVTVTWNSGSLSSGVHTFPAVLQSDLYTLSSSVTVPSSTWPSQTVTCNVAHPASSTKVDKKIVPRDCGCKPCICTVPEVSSVFIFPPKPKDVLTITLTPKVTCVVVAISKDDPEVQFSWFVDDVEVHTAQTKPREEQINSTFRSVSELPIMHQDWLNGKEFKCRVNSAAFGAPIEKTISKTKGRPKAPQVYTIPPPKKQMAKDKVSLTCMITNFFPEDITVEWQWNGQPAENYKNTQPIMKTDGSYFVYSKLNVQKSNWEAGNTFTCSVLHEGLHNHHTEKSLSHSPGGGGGSGGGGSGGGGSGGGGSEVQLLESGGGLVQPGGSLRLSCAASGFTFSSHAMSWVRQAPGKGLEWVSAIWASGEQYYADSVKGRFTISRDNSKNTLYLQMNSLRAEDTAVYYCAKGWLGNFDYWGQGTLVTVSS
light: DIQMTQSPASLSASLEEIVTITCQASQDIGNWLAWYHQKPGKSPQLLIYGTSSLADGVPSRFSGSSSGSQYSLKISRLQVEDIGIYYCLQAYGAPWTFGGGTKLELKRADAAPTVSIFPPSSEQLTSGGASVVCFLNNFYPKDINVKWKIDGSERQNGVLNSWTDQDSKDSTYSMSSTLTLTKDEYERHNSYTCEATHKTSTSPIVKSFNRNEC
notes: It is a mouse IgG1 with DAPG (D265A, P329G) and DD/KK heterodimerisation mutations, bivalent for mouse 4-1BB and monovalent for FAP; also called muFAP-4-1BB; mouse surrogate muFAP-4-1BB
- binding result: binds
